From paper PMC3875364 come the findings set out here.

Common to all, as to assay: fluorescence anisotropy
For orientation: Polarisation of emitted light reports the rotation of a fluorescent probe.

The target in data set [1] is T1, NC(1-55) WT, zinc-bound (HIV-1 (NL4-3 isolate), UniProt P12493 378-432).
The target of data set [2] is T2, NC(1-35) (HIV-1 (NL4-3 isolate), UniProt P12493 378-412).
T2 chain: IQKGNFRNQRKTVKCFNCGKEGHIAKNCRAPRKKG

Data set [3] has as its target NC(29-55) (HIV-1 (NL4-3 isolate), UniProt P12493 406-432).
Data set [4] deals with T1, NC(1-55) WT, zinc-bound. The source holds these as a separate data set.
Data set [5] concerns the target T3, NC(1-28) (HIV-1 (NL4-3 isolate), UniProt P12493 378-405).
T3 chain: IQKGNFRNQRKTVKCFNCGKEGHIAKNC

Like-named read-outs stand apart in the source and are kept apart here.

For the molecule CTTCTTTGGGAGTGAATTAG (ssDNA) [5'-FAM-DNA20], the Kd is 16 ± 5 nM in data set [1]; 86 ± 19 nM in data set [2]; 867 ± 3 nM in data set [3]; 57 ± 22 nM in data set [4]; 731 ± 150 nM in data set [5].

The term Kd denotes a measure of binding affinity in units of concentration. A lower Kd goes with tighter binding.
